Experiments:
PHF-tau (human) [1] = biological target: PHF-tau (human) (UniProt P10636); test: competition ELISA on PHF-tau captured by polyclonal anti-tau; biotinylated AT8, unlabeled competitor AT8 at 10 ug/ml
PHF-tau (human) [2] = biological target: PHF-tau (human) (UniProt P10636); test: competition ELISA on PHF-tau captured by polyclonal anti-tau; biotinylated AT8, unlabeled competitor AT120 at 10 ug/ml
PHF-tau (human) [3] = biological target: PHF-tau (human) (UniProt P10636); test: sandwich ELISA: AT120 coated, tau at 0 pg/ml (blank), detection with biotinylated BT2 + HT7
[4] = biological target: affinity-purified human normal tau (human) (UniProt P10636); test: as above
PHF-tau (human) [5] = biological target: PHF-tau (human) (UniProt P10636); test: sandwich ELISA: AT120 coated, tau at 10 pg/ml spiked in tau-negative CSF, detection with biotinylated BT2 + HT7
[6] = biological target: affinity-purified human normal tau (human) (UniProt P10636); test: as above
PHF-tau (human) [7] = biological target: PHF-tau (human) (UniProt P10636); test: sandwich ELISA: AT120 coated, tau at 20 pg/ml spiked in tau-negative CSF, detection with biotinylated BT2 + HT7
[8] = biological target: affinity-purified human normal tau (human) (UniProt P10636); test: as above
PHF-tau (human) [9] = biological target: PHF-tau (human) (UniProt P10636); test: sandwich ELISA: AT120 coated, tau at 40 pg/ml spiked in tau-negative CSF, detection with biotinylated BT2 + HT7
[10] = biological target: affinity-purified human normal tau (human) (UniProt P10636); test: as above
PHF-tau (human) [11] = biological target: PHF-tau (human) (UniProt P10636); test: sandwich ELISA: AT120 coated, tau at 80 pg/ml spiked in tau-negative CSF, detection with biotinylated BT2 + HT7
[12] = biological target: affinity-purified human normal tau (human) (UniProt P10636); test: as above
PHF-tau (human) [13] = biological target: PHF-tau (human) (UniProt P10636); test: sandwich ELISA: AT120 coated, tau at 160 pg/ml spiked in tau-negative CSF, detection with biotinylated BT2 + HT7
[14] = biological target: affinity-purified human normal tau (human) (UniProt P10636); test: as above
PHF-tau (human) [15] = biological target: PHF-tau (human) (UniProt P10636); test: competition ELISA on PHF-tau captured by polyclonal anti-tau; biotinylated AT120, unlabeled competitor AT8 at 10 ug/ml
PHF-tau (human) [16] = biological target: PHF-tau (human) (UniProt P10636); test: competition ELISA on PHF-tau captured by polyclonal anti-tau; biotinylated AT120, unlabeled competitor AT120 at 10 ug/ml
PHF-tau (human) [17] = biological target: PHF-tau (human) (UniProt P10636); test: competition ELISA on PHF-tau captured by polyclonal anti-tau; biotinylated BT2, unlabeled competitor BT2 at 10 ug/ml
PHF-tau (human) [18] = biological target: PHF-tau (human) (UniProt P10636); test: competition ELISA on PHF-tau captured by polyclonal anti-tau; biotinylated BT2, unlabeled competitor AT120 at 10 ug/ml

monoclonal antibody AT8
Absorbance (PHF-tau (human) [1]): 0.001 absorbance | Absorbance (PHF-tau (human) [2]): 0.372 absorbance

monoclonal antibody AT120
absorbance (milliabsorbance units) (milliabsorbance units) (PHF-tau (human) [3]): 92 | absorbance (milliabsorbance units) (milliabsorbance units) [4]: 87 | absorbance (milliabsorbance units) (milliabsorbance units) (PHF-tau (human) [5]): 143 | absorbance (milliabsorbance units) (milliabsorbance units) [6]: 154 | absorbance (milliabsorbance units) (milliabsorbance units) (PHF-tau (human) [7]): 257 | absorbance (milliabsorbance units) (milliabsorbance units) [8]: 256 | absorbance (milliabsorbance units) (milliabsorbance units) (PHF-tau (human) [9]): 566 | absorbance (milliabsorbance units) (milliabsorbance units) [10]: 678 | absorbance (milliabsorbance units) (milliabsorbance units) (PHF-tau (human) [11]): 901 | absorbance (milliabsorbance units) (milliabsorbance units) [12]: 970 | absorbance (milliabsorbance units) (milliabsorbance units) (PHF-tau (human) [13]): 1680 | absorbance (milliabsorbance units) (milliabsorbance units) [14]: 1610 | Absorbance (PHF-tau (human) [15]): 0.476 absorbance | Absorbance (PHF-tau (human) [16]): 0.001 absorbance

monoclonal antibody BT2
Absorbance (PHF-tau (human) [17]): 0.054 absorbance | Absorbance (PHF-tau (human) [18]): 0.543 absorbance
